The target of data set [1] is T1, GST-ΔLIM pLhx3 (Sus scrofa, UniProt O97581 SEQ:134-383).
T1 chain: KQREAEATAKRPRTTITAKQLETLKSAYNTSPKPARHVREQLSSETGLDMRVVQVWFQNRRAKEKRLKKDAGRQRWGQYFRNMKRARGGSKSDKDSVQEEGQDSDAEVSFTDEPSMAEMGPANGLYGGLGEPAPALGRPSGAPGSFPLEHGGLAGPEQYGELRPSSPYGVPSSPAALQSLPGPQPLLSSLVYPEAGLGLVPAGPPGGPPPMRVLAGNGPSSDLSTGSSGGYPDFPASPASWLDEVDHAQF
The experiment in a line: EMSA; affinity relative to full-length GST-pLhx3 (LIM deletion); competed by unlabeled wild type. To be noted: tags: N-terminal GST (pGEX-KT); label: radiolabel. How it is done:
(§1) FIG. 4B is an image depicting an analysis of recombinant porcine pLhx3 protein binding to DNA target sequences. The image depicts electrophoretic mobility shift assay using labeled wild type and mutant oligonucleotides representing the −351 to −324 bp region of the porcine αGSU gene promoter. Probes were incubated with the indicated proteins and competitor DNA and the resulting complexes were separated from free probe (F) by electrophoresis. The panel on the right of the figure was exposed three times as long as the left-hand panel to detect weak binding of GST-pLhx3 to the porcine αGSU binding site (which is indicated by an arrow).
A general note: In EMSA bound probe runs differently from free probe, usually more slowly.

The target in data set [2] is T2, GST (UniProt P08515 P08515:1-218). The experiment in a line: EMSA; GST negative control. To be noted: tags: GST alone, pGEX-KT; label: radiolabel. On the procedure:
as §1

For data set [3], the target named is T1, GST-ΔLIM pLhx3. Briefly: competition; 200 ng unlabeled mutant did not compete. To be noted: tags: N-terminal GST (pGEX-KT). On the procedure:
as §1

Another data set concerns the target T3, hLhx3a-myc (Homo sapiens, UniProt Q9UBR4 SEQ:1-397).
T3 sequence: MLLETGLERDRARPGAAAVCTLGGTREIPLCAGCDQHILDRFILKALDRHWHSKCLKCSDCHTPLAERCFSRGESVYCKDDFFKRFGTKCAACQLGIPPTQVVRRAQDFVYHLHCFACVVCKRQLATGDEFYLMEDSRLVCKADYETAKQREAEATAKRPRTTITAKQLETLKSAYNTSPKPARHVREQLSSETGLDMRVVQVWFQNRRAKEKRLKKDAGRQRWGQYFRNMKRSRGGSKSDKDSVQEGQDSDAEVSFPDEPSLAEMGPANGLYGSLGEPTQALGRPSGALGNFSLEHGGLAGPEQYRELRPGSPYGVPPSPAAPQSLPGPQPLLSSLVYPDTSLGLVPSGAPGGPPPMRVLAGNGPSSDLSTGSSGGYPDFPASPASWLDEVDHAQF
The experiment in a line: EMSA; similar to untagged; more effective than hLhx3b-myc. To be noted: tags: C-terminal myc (pcDNA3.1/Myc-His); label: radiolabel. How it is done: (§2) Radiolabeled probes were incubated with the indicated proteins and competitor DNAs and the resulting complexes were separated from free probe (F) by electrophoresis. Lane 1, unprogrammed rabbit reticulocyte lysate as a negative control (lysate); lanes 2-5 (hLhx3a; hLhx3b; hLhx3a-myc; and hLhx36-myc, respectively), reactions contained in vitro translated hLhx3 proteins including isoforms comprising a myc tag epitope. A nonspecific band is noted by an asterisk (*). Human Lhx3 protein/DNA complexes are indicated by an arrow. Lane 6 depicts the lack of binding using GST as a negative control; lanes 7-14 (GST-hLhx3a, more GST-hLhx3a, comp plus hLhx3a, GST-hLhx3b; more GST-hLhx3b, comp plus hLhx3b, GST-hLhx3a, and GST-hLhx36, respectively) depict binding of the DNA probe by recombinant hLhx3 proteins expressed in E. coli. “Comp” denotes reactions containing approximately 1000-fold molar excess of unlabeled binding site as a competitor.
(§3) Without wishing to be bound by any particular theory, mechanisms for the different activities include the possibilities that the a-specific and b-specific domains are trans-activation or trans-repression domains, respectively, or that the a- and b-specific domains mediate interaction with distinct regulatory factors, or that the a- and b-specific domains modulate the DNA binding properties of hLhx3 differently. […]

Data set [4] has as its target T2, GST. The experiment in a line: EMSA; GST negative control. To be noted: tags: GST alone, pGEX-KT; label: radiolabel. How it is done: (§4) FIG. 18B is an image of a gel depicting an electrophoretic mobility shift assay (EMSA) using Lhx3 consensus binding site (lanes 1-12) or αGSU gene −350 to −323 binding site (lanes 13 and 14) as oligonucleotide probes. Radiolabeled probes were incubated with the indicated proteins and competitor DNAs and the resulting complexes were separated from free probe (F) by electrophoresis. Lane 1, unprogrammed rabbit reticulocyte lysate as a negative control (lysate); lanes 2-5 (hLhx3a; hLhx3b; hLhx3a-myc; and hLhx36-myc, respectively), reactions contained in vitro translated hLhx3 proteins including isoforms comprising a myc tag epitope. A nonspecific band is noted by an asterisk (*). Human Lhx3 protein/DNA complexes are indicated by an arrow. Lane 6 depicts the lack of binding using GST as a negative control; lanes 7-14 (GST-hLhx3a, more GST-hLhx3a, comp plus hLhx3a, GST-hLhx3b; more GST-hLhx3b, comp plus hLhx3b, GST-hLhx3a, and GST-hLhx36, respectively) depict binding of the DNA probe by recombinant hLhx3 proteins expressed in E. coli. “Comp” denotes reactions containing approximately 1000-fold molar excess of unlabeled binding site as a competitor.
The source holds these as a separate data set.

The target in data set [5] is T4, GST-hLhx3a (Homo sapiens, UniProt Q9UBR4 SEQ:1-397).
T4 sequence: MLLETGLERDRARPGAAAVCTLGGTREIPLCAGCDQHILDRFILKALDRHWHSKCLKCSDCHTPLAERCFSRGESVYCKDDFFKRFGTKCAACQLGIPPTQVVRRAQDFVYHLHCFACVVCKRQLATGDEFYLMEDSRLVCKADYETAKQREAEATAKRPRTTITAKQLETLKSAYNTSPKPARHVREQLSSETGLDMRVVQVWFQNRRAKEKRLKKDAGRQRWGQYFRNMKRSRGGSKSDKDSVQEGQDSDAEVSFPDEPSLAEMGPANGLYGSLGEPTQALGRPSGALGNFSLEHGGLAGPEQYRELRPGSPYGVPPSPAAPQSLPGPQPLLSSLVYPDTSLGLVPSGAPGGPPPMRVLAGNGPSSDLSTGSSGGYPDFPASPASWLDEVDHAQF
The experiment in a line: EMSA; reduced by 1000-fold unlabeled competitor. To be noted: tags: N-terminal GST (pGEX-KT); label: radiolabel. How it is done: as §4

The target of data set [6] is T5, hLhx3a (Homo sapiens, UniProt Q9UBR4 SEQ:1-397).
T5 sequence: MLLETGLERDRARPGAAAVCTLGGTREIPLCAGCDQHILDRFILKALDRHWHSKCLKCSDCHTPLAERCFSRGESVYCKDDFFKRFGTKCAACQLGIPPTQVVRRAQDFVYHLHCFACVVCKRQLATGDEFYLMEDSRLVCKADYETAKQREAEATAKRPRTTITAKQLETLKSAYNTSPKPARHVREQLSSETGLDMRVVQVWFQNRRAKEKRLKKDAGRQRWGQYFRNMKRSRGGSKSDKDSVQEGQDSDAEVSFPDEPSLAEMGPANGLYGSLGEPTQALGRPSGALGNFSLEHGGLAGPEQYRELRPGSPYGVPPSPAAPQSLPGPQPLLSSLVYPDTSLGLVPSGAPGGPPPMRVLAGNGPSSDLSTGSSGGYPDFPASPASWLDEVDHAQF
Briefly: EMSA; binds more effectively than hLhx3b. To be noted: label: radiolabel. How it is done:
as §2, §3

The target of data set [7] is T5, hLhx3a. The experiment in a line: EMSA; in vitro translated; text states more effective than hLhx3b at both sites. To be noted: label: radiolabel. How it is done:
as §2, §3

Data set [8] addresses T4, GST-hLhx3a. Briefly: EMSA; binds more effectively than GST-hLhx3b. To be noted: tags: N-terminal GST (pGEX-KT); label: radiolabel. On the procedure:
as §4

T2 sequence (P08515 whole entry, one chain of several): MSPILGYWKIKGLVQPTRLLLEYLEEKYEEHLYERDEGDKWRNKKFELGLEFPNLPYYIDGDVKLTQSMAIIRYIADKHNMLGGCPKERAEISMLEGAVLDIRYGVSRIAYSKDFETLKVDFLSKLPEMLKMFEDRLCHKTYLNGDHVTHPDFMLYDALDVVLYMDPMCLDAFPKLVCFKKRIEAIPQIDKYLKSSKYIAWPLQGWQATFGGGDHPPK

B1: porcine αGSU -351/-324 wild type (dsDNA)
DNA 1: ACATTAGGTACTTAGCTAATTAAATGTG
DNA 2: CACATTTAATTAGCTAAGTACCTAATGT
With B1, the binding signal with GST-ΔLIM pLhx3 [1] was no less than 15 fold. For the same molecule, the binding result with GST [2] is given as “no binding”.

B2: porcine αGSU -351/-324 mutant (dsDNA)
DNA 1: ACATTAGGTACTTGGCGCGCCAAATGTG
DNA 2: CACATTTGGCGCGCCAAGTACCTAATGT
Take B2: the binding result with GST-ΔLIM pLhx3 [3] is recorded as “no binding”.

B3: Lhx3 consensus binding site (dsDNA)
DNA 1: CAGAAAATTAATTAATTGTAA
DNA 2: TTACAATTAATTAATTTTCTG
Regarding B3, the binding result with hLhx3a-myc is “binds”; with GST [4] it was “no binding”; with GST-hLhx3a [5], “binds”; with hLhx3a [6] it was “binds”.

B4: αGSU -350/-323 (PGBE) (dsDNA)
DNA 1: ACATTAGGTACTTAGCTAATTAAATGTG
DNA 2: CACATTTAATTAGCTAAGTACCTAATGT
In the case of B4, the binding result with hLhx3a [7] and with GST-hLhx3a [8] was “binds” in each case.

Values taken from patent US20030027152, “Generation of diagnostic tools to assay the human LHX3/P-LIM/LIM-3 factor” (Indiana University Advanced Research and Technology …, published 2003).
